The labels stand for the following.
B1: Hsp70 C-terminal peptide GPTIEEVD (residues 634-641), biotin-SGSG at the N terminus [modified: biotin at the N terminus; biotin at the N terminus] [not stated] / Carboxy-terminus of Hsc70-interacting protein (CHIP), His-tagged, wild type … (parent complex)
chain 1: SGSGGPTIEEVD
chain 2: MKGKEEKEGGARLGAGGGSPEKSPSAQELKEQGNRLFVGRKYPEAAACYGRAITRNPLVAVYYTNRALCYLKMQQHEQALADCRRALELDGQSVKAHFFLGQCQLEMESYDEAIANLQRAYSLAKEQRLNFGDDIPSALRIAKKKRWNSIEERRIHQESELHSYLSRLIAAERERELEECQRNHEGDEDDSHVRAQQACIEAKHDKYMADMDELFSQVDEKRKKRDIPDYLCGKISFELMREPCITPSGITYDRKDIEEHLQRVGHFDPVTRSPLTQEQLIPNLAMKEVIDAFISENGWVEDY
B2: Carboxy-terminus of Hsc70-interacting protein (CHIP), untagged, wild type [human] / His-tagged UbcH5a [not stated] (parent complex)
chain 1: B1 chain 2
chain 2: not shown
B3: Carboxy-terminus of Hsc70-interacting protein (CHIP), His-tagged, wild type [human] / GST-IRF-1 (pDEST-15-codon optimized IRF-1) [not stated] (parent complex)
chain 1: B1 chain 2
chain 2: MPITRMRMRPWLEMQINSNQIPGLIWINKEEMIFQIPWKHAAKHGWDINKDACLFRSWAIHTGRYKAGEKEPDPKTWKANFRCAMNSLPDIEEVKDQSRNKGSSAVRVYRMLPPLTKNQRKERKSKSSRDAKSKAKRKSCGDSSPDTFSDGLSSSTLPDDHSSYTVPGYMQDLEVEQALTPALSPCAVSSTLPDWHIPVEVVPDSTSDLYNFQVSPMPSTSEATTDEDEEGKLPEDIMKLLEQSEWQPTNVDGKGYLLNEPGVQPTSVYGDFSCKEEPEIDSPGGDIGLSLQRVFTDLKNMDATWLDSLLTPVRLPSIQAIPCAP
B4: GST-IRF-1 (pDEST-15-codon optimized IRF-1) [not stated] / Carboxy-terminus of Hsc70-interacting protein (CHIP), His-tagged, wild type [human] (parent complex)
chain 1: B3 chain 2
chain 2: B1 chain 2

One experiment covers variants of B1. Briefly: microtitre-well binding assay (streptavidin-HRP detection); value read at the highest dose, 20 uM Hsp70 wt peptide; His-CHIP coated on wells, biotin peptide in the mobile phase; parent: 45; read off a plot.
Turning to chain 2 K30A, the response was around 7 RLU.

The variants in the next experiment derive from B2. In words: AlphaScreen; value read at the highest dose, 100 ng CHIP; untagged CHIP on protein A acceptor beads through anti-CHIP N-term pAb, His-UbcH5a on Nickel-chelate donor beads; parent: 2.3e+04; read off a plot.
As for chain 1 K30A, the response is around 9000 AlphaScreen Units.

Variants of B3 are the subject of another experiment. In words: microtitre-well binding assay (luminometer, anti-CHIP antibody); upper panel; value read at the highest dose, about 130 ng CHIP; GST-IRF-1 immobilized, His-CHIP in the mobile phase; parent: 18; read off a plot.
Take chain 1 K30A: the response was around 12 RLU.

Another experiment covers variants of B4. Briefly: microtitre-well binding assay; lower panel; value read at the highest dose, about 130 ng GST-IRF-1; His-CHIP coated on wells, GST-IRF-1 in the mobile phase; parent: 120; read off a plot.
On to chain 2 K30A, for which the response is around 110 RLU.

The values are drawn from paper PMC4638040 (2015).
